Assay results as given in patent publication US20100285028A1.

Target: von Willebrand factor (mouse) (UniProt Q8CIZ8)
Test: cell-based or functional assay

Chain of UniProt Q8CIZ8 (Q8CIZ8 764-2813 limits assumed): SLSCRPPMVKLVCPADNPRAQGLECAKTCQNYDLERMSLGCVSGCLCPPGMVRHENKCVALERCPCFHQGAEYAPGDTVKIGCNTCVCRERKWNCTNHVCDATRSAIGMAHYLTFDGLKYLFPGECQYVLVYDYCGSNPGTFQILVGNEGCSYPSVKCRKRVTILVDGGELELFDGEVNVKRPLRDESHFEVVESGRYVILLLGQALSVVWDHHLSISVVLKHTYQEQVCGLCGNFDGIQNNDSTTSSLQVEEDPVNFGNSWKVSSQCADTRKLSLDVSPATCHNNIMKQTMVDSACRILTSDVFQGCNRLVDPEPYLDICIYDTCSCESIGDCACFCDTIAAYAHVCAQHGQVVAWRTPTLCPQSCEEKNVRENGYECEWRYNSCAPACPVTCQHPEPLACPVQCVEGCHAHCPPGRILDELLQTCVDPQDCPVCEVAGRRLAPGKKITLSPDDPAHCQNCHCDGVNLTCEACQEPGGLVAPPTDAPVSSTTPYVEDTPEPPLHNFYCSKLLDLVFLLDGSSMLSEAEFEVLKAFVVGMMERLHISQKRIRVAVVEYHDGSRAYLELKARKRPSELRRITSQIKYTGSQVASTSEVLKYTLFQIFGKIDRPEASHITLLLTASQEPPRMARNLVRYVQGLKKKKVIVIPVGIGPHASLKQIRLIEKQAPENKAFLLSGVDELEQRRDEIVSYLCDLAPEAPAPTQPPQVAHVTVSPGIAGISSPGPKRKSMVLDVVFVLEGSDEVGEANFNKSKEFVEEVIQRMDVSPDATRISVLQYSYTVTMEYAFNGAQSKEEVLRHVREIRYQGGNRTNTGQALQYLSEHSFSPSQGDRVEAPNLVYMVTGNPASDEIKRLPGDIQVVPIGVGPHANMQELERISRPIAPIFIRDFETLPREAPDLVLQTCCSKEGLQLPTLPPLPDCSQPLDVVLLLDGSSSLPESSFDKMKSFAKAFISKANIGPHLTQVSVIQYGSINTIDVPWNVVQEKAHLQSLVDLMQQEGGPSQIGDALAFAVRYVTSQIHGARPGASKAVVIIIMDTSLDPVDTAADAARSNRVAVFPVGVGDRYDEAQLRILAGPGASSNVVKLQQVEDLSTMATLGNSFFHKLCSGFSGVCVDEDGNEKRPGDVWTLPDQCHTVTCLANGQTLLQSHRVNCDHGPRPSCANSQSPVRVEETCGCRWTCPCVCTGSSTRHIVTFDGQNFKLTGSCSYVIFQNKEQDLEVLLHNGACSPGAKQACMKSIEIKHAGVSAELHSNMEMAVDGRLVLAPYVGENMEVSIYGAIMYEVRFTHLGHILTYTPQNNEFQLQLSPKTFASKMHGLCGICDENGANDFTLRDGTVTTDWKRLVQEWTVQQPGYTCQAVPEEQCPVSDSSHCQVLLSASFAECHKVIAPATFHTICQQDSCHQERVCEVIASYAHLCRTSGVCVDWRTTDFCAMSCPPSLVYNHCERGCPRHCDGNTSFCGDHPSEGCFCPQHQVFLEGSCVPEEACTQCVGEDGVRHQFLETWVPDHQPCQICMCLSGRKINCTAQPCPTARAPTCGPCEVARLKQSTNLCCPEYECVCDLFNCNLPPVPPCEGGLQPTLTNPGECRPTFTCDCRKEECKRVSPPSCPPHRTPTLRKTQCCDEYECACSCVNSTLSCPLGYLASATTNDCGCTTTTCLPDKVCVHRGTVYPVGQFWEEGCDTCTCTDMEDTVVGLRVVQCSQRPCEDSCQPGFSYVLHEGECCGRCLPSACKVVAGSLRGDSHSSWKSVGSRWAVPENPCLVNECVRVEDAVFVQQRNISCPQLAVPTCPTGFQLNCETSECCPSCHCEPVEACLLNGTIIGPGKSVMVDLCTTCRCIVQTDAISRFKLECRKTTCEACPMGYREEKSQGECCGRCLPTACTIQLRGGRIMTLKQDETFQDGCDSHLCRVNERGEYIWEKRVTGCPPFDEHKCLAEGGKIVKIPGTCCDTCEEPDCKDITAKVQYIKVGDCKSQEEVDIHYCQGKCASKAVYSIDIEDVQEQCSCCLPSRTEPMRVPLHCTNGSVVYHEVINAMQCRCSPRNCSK

circulating plasma vWF abundance in mice lacking Asgr-1: 1.5 fold
Substance: Asgr-1 chain of the Ashwell receptor (from UniProt P34927 1-284)
